We go through one molecule from patent publication EP4019546A1.

The target in assay [1] is human IL-31 (human) (UniProt Q6EBC2). Kind of assay: cell-based or functional assay.
Assay [2] deals with human IL-31-His (human) (UniProt Q6EBC2). Kind of assay: SPR (Biacore T200), IL-31-His captured via anti-His antibody, scFv as analyte, 1:1 model. (In general: In SPR one partner is held on a chip, and binding of the other changes the refractive index at the surface.)
Assay [3] has as its target human IL-31 (human) (UniProt Q6EBC2). Kind of assay: competitive ELISA, IL-31RA coated, biotinylated IL-31 preincubated with scFv; competitor IL-31RA. For orientation: ELISA stands for enzyme-linked immunosorbent assay.
Assay [4] shares this target. Kind of assay: cell-based or functional assay. The source holds these as a separate data set.
The target of assay [5] is human IL-31-His (human) (UniProt Q6EBC2). Kind of assay: SPR (Biacore T200), IL-31-His captured via anti-His antibody, scFv as analyte, 1:1 model. The source holds these as a separate data set.

Read-outs that look alike come from different tables or passages of the source.

Chain of human IL-31-His (human) (Q6EBC2 24-164 limits assumed): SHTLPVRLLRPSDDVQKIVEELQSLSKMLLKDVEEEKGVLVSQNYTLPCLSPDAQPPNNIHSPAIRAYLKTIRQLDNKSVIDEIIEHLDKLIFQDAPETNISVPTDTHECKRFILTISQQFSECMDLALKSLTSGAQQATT
Chain of human IL-31 (human) (Q6EBC2 24-164 limits assumed): as above

B1: PRO1643 (scFv, from another filing)
scFv: AFQLTQSPSSLSASVGDRVTITCQASQSIDSWLAWYQQKPGKPPKLLIYQASKLASGVPSRFSGSGSGTDYTLTISSLQPEDFATYYCQTYYGGGHIGWGFGTGTKVTVLGGGGGSGGGGSGGGGSGGGGSQSQLVESGGGLVQPGGSLRLSCAASGFSFSANYWICWVRQAPGKGLEWIVCIYIGSRADTYYAPWAKGRFTISKDNSKNTVYLQMNSLRAEDTAVYFCARFSSGIYDLDRFFLWGQGTLVTVSS
In the assay with human IL-31 (human) [1], B1 returned an IC50, neutralization of hIL-31-induced signaling in IL-31RA/OSMR dimerization assay of 8.08 ng/mL and a rel. IC50 (IC50, BMS-981164/IC50, test sample), IL-31RA/OSMR dimerization assay of 0.85. Besides, in the assay with human IL-31-His (human) [2], the Kd (commonly a measure of binding affinity in units of concentration) was determined as 1.13 nM; the koff (in general, a measure of how fast the partners let go of each other) was 0.000653 s⁻¹; the kon (in general, the second-order rate constant of association) stood at 579000 M⁻¹ s⁻¹. Also, in the assay with human IL-31 (human) [3], the IC50 (in general, the point on the concentration scale where inhibition reaches its midpoint) came to 4.58 ng/mL and the rel. IC50 (IC50, BMS-981164/IC50, test sample) was 2.04. In the assay with human IL-31 (human) [4], this molecule displayed an IC50, neutralization of hIL-31-induced signaling in IL-31RA/OSMR dimerization assay of 11.1 ng/mL and a rel. IC50 (IC50, BMS-981164/IC50, test sample), IL-31RA/OSMR dimerization assay of 1.16. Moreover, in the assay with human IL-31-His (human) [5], the Kd was 0.505 nM, the koff was found to be 0.000447 s⁻¹ and the kon stood at 884000 M⁻¹ s⁻¹.
